T1: VEGF(8-109) (UniProt P15692 214-315)
T1 construct: range 8-109; Covalently coupled to the BIACORE chip
T1 sequence (looked up): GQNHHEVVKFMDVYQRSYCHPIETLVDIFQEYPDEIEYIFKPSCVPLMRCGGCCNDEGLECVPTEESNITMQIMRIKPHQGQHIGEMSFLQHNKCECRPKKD


Columns and labels:
VEGF(8-109) [1] = biological target: T1, VEGF(8-109); test: SPR (BIACORE-2000), ratio against Y0192
VEGF(8-109) [2] = biological target: T1, VEGF(8-109); test: SPR (BIACORE-2000), Kd calculated as koff/kon
VEGF(8-109) [3] = biological target: T1, VEGF(8-109); test: SPR (BIACORE-2000), VEGF(8-109) coupled to the chip, Fab injected, 25 C

Kd(wt)/Kd(mut) (VEGF(8-109) [1]) [fold]	Kd (VEGF(8-109) [2]) [nM]	koff (VEGF(8-109) [3]) [s⁻¹]	kon (VEGF(8-109) [3]) [M⁻¹ s⁻¹]	Binder
1.1	2.7	0.000129	47000	Y0241-6 (Fab, V domains shown, Clone from library YC-86 built on pY0192, expressed as Fab) VH: EVQLVESGGGLVQPGGSLRLSCAASGYDYTNYGMNWVRQAPGKGLEWVGWINTYTGEPTYAADFKRRFTFSLDTSKSTAYLQMNSLRAEDTAVYYCAKYPHYYGSSHWYFDVWGQGTL VL: DIQLTQSPSSLSASVGDRVTITCRANEQLSNYLNWYQQKPGKAPKVLIYFTSSLHSGVPSRFSGSGSGTDFTLTISSLQPEDFATYYCQQYSTVPWTFGQGTKVEIKR
9.7	–	–	–	Y0239-19 (Fab, V domains shown, Expressed as Fab; also called insertion variant Y0239-19; VNERK motif variant) VH: EVQLVESGGGLVQPGGSLRLSCAASGYTFTNYGMNWVRQAPGKGLEWVGWINTYTGEPTYAADFKRRFTFSLDTSKSTAYLQMNSLRAEDTAVYYCAKYPHYYVNERKSHWYFDVWGQGTL VL: DIQLTQSPSSLSASVGDRVTITCRANEQLSNYLNWYQQKPGKAPKVLIYFTSSLHSGVPSRFSGSGSGTDFTLTISSLQPEDFATYYCQQYSTVPWTFGQGTKVEIKR
5.8	–	–	–	Y0239-8 (Fab, V domains shown, Clone from library YC-95 (G104 replaced by a random peptide) on pY0192; Expressed as Fab; The limits of the flanking pieces are my reading) VH: EVQLVESGGGLVQPGGSLRLSCAASGYTFTNYGMNWVRQAPGKGLEWVGWINTYTGEPTYAADFKRRFTFSLDTSKSTAYLQMNSLRAEDTAVYYCAKYPHYYLRDGRSSHWYFDVWGQGTL VL: DIQLTQSPSSLSASVGDRVTITCRANEQLSNYLNWYQQKPGKAPKVLIYFTSSLHSGVPSRFSGSGSGTDFTLTISSLQPEDFATYYCQQYSTVPWTFGQGTKVEIKR
6	–	–	–	Y0239-9 (Fab, V domains shown, Clone from library YC-95 on pY0192; Expressed as Fab; The limits of the flanking pieces are my reading) VH: EVQLVESGGGLVQPGGSLRLSCAASGYTFTNYGMNWVRQAPGKGLEWVGWINTYTGEPTYAADFKRRFTFSLDTSKSTAYLQMNSLRAEDTAVYYCAKYPHYYLGESSHWYFDVWGQGTL VL: DIQLTQSPSSLSASVGDRVTITCRANEQLSNYLNWYQQKPGKAPKVLIYFTSSLHSGVPSRFSGSGSGTDFTLTISSLQPEDFATYYCQQYSTVPWTFGQGTKVEIKR
5.8	–	–	–	Y0240-1 (Fab, V domains shown, Clone from library YC-98 (G104 and S105 replaced by a random peptide) on pY0192; Expressed as Fab; The limits of the flanking pieces are my reading) VH: EVQLVESGGGLVQPGGSLRLSCAASGYTFTNYGMNWVRQAPGKGLEWVGWINTYTGEPTYAADFKRRFTFSLDTSKSTAYLQMNSLRAEDTAVYYCAKYPHYYLTDHKSHWYFDVWGQGTL VL: DIQLTQSPSSLSASVGDRVTITCRANEQLSNYLNWYQQKPGKAPKVLIYFTSSLHSGVPSRFSGSGSGTDFTLTISSLQPEDFATYYCQQYSTVPWTFGQGTKVEIKR
0.6	–	–	–	Y0239-2 (Fab, V domains shown, Clone from library YC-95 on pY0192; Expressed as Fab; The limits of the flanking pieces are my reading) VH: EVQLVESGGGLVQPGGSLRLSCAASGYTFTNYGMNWVRQAPGKGLEWVGWINTYTGEPTYAADFKRRFTFSLDTSKSTAYLQMNSLRAEDTAVYYCAKYPHYYKNDKSSHWYFDVWGQGTL VL: DIQLTQSPSSLSASVGDRVTITCRANEQLSNYLNWYQQKPGKAPKVLIYFTSSLHSGVPSRFSGSGSGTDFTLTISSLQPEDFATYYCQQYSTVPWTFGQGTKVEIKR
5	–	–	–	Y0261-6 (Fab, V domains shown, Clone from library YC-98 on pY0192; Expressed as Fab; The limits of the flanking pieces are my reading) VH: EVQLVESGGGLVQPGGSLRLSCAASGYTFTNYGMNWVRQAPGKGLEWVGWINTYTGEPTYAADFKRRFTFSLDTSKSTAYLQMNSLRAEDTAVYYCAKYPHYYLKDKKSHWYFDVWGQGTL VL: DIQLTQSPSSLSASVGDRVTITCRANEQLSNYLNWYQQKPGKAPKVLIYFTSSLHSGVPSRFSGSGSGTDFTLTISSLQPEDFATYYCQQYSTVPWTFGQGTKVEIKR
1.6	–	–	–	Y0242-1 (Fab, V domains shown, Clone from library YC-90; Expressed as Fab) VH: EVQLVESGGGLVQPGGSLRLSCAASGYTFTNYGMNWVRQAPGKGLEWVGWINTWTGEPTYAADFKRRFTFSLDTSKSTAYLQMNSLRAEDTAVYYCAKYPHYYGSSHWYFDVWGQGTL VL: DIQLTQSPSSLSASVGDRVTITCRANEQLSNYLNWYQQKPGKAPKVLIYFTSSLHSGVPSRFSGSGSGTDFTLTISSLQPEDFATYYCQQYSTVPWTFGQGTKVEIKR
8	–	–	–	Y0313-2 (Fab, V domains shown, Combines the CDR H3 insertion of Y0239-19 with T28D/N31H; Prepared as Fab; also called CDR combination variant Y0313-2; Insert-Fab Y0313-2) VH: EVQLVESGGGLVQPGGSLRLSCAASGYDFTHYGMNWVRQAPGKGLEWVGWINTYTGEPTYAADFKRRFTFSLDTSKSTAYLQMNSLRAEDTAVYYCAKYPHYYVNERKSHWYFDVWGQGTL VL: DIQLTQSPSSLSASVGDRVTITCRANEQLSNYLNWYQQKPGKAPKVLIYFTSSLHSGVPSRFSGSGSGTDFTLTISSLQPEDFATYYCQQYSTVPWTFGQGTKVEIKR
4.8	–	–	–	Y0239-12 (Fab, V domains shown, Clone from library YC-98 on pY0192; Expressed as Fab; The limits of the flanking pieces are my reading) VH: EVQLVESGGGLVQPGGSLRLSCAASGYTFTNYGMNWVRQAPGKGLEWVGWINTYTGEPTYAADFKRRFTFSLDTSKSTAYLQMNSLRAEDTAVYYCAKYPHYYAHEKKSHWYFDVWGQGTL VL: DIQLTQSPSSLSASVGDRVTITCRANEQLSNYLNWYQQKPGKAPKVLIYFTSSLHSGVPSRFSGSGSGTDFTLTISSLQPEDFATYYCQQYSTVPWTFGQGTKVEIKR
1	3	0.000128	46000	Y0241-7 (Fab, V domains shown, Clone from library YC-86 built on pY0192, expressed as Fab; This is not written as a substitution) VH: EVQLVESGGGLVQPGGSLRLSCAASGYDWTNYGMNWVRQAPGKGLEWVGWINTYTGEPTYAADFKRRFTFSLDTSKSTAYLQMNSLRAEDTAVYYCAKYPHYYGSSHWYFDVWGQGTL VL: DIQLTQSPSSLSASVGDRVTITCRANEQLSNYLNWYQQKPGKAPKVLIYFTSSLHSGVPSRFSGSGSGTDFTLTISSLQPEDFATYYCQQYSTVPWTFGQGTKVEIKR

From patent publication EP1950300A2 (Genentech, Inc., dated 2008)
